According to paper PMC2650391 (Molecular cell, 2009):

System: H3K4me peptides / ING4 PHD finger
Test: Biotinylated histone peptide pull-down, Western analysis
Type: binding
Details: full-length vs PHD-deleted ING4

B1: ING4ΔPHD: ING4 derivative lacking the PHD finger (aa 1–194) (protein)
chain: MAAGMYLEHYLDSIENLPFELQRNFQLMRDLDQRTEDLKAEIDKLATEYMSSARSLSSEEKLALLKQIQEAYGKCKEFGDDKVQLAMQTYEMVDKHIRRLDTDLARFEADLKEKQIESSDYDSSSSKGKKKGRTQKEKKAARARSKGKNSDEEAPKTAQKKLKLVRTSPEYGMPSVTFGSVHPSDVLDMPVDPN
modifications: left off: GST (inferred from the vector pGEX6P1), end not stated, state not stated
  recognition of methylated H3K4 peptides in pull-down: does not
